Measurements published in PMC4954676.

| KM of cleavage of the peptide by thrombin (fluorescence polarisation cleavage assay, Michaelis-Menten fit) (human thrombin (human)) [µM] | fold reduction of kcat/KM of cleavage by thrombin, truncated FpA peptide against the full length peptide (human thrombin (human)) [fold] | kcat of cleavage of the peptide by thrombin (fluorescence polarisation cleavage assay, Michaelis-Menten fit) (human thrombin (human)) [s⁻¹] | fold reduction of kcat/KM of cleavage by rat thrombin, truncated rat FpA peptide against the full-length rat FpA peptide (rat thrombin (rat)) [fold] | kcat/KM of cleavage of the peptide by thrombin (fluorescence polarisation cleavage assay, Michaelis-Menten fit) (human thrombin (human)) [M⁻¹ s⁻¹] | Substance |
| --- | --- | --- | --- | --- | --- |
| 630 | 490 | 0.25 | – | – | synthetic peptide containing NEP-truncated human FpA and the first four residues of the main α-chain |
| – | – | – | 5.7 | – | synthetic peptide containing NEP-truncated rat FpA and the first four residues of the main α-chain |
| 51 | – | 9.1 | – | 180000 | synthetic peptide containing full-length human FpA and the first four residues of the main α-chain |
